# Results: patent WO2011147762A2
# Experiments:
# [1] = biological target: ED-B fibronectin antigen protein (recombinant), bound to CNBr activated sepharose 4B (UniProt P02751); assay: ED-B sepharose column, % of total radioactivity bound; Study B3; no-excipient control (PBS); day 7
# [2] = biological target: ED-B fibronectin antigen protein (recombinant), bound to CNBr activated sepharose 4B (UniProt P02751); assay: ED-B sepharose column, % of total radioactivity bound; Study B3; human serum albumin 10 mg/mL; day 2
# [3] = biological target: ED-B fibronectin antigen protein (recombinant), bound to CNBr activated sepharose 4B (UniProt P02751); assay: ED-B sepharose column, % of total radioactivity bound; Study A; inositol 25 mg/mL; day 3
# [4] = biological target: ED-B fibronectin antigen protein (recombinant), bound to CNBr activated sepharose 4B (UniProt P02751); assay: ED-B sepharose column, % of total radioactivity bound; Study A; methionine 10 mg/mL; day 5
# [5] = biological target: ED-B fibronectin antigen protein (recombinant), bound to CNBr activated sepharose 4B (UniProt P02751); assay: ED-B sepharose column, % of total radioactivity bound; Study A; inositol 50 mg/mL; day 5
# [6] = biological target: ED-B fibronectin antigen protein (recombinant), bound to CNBr activated sepharose 4B (UniProt P02751); assay: ED-B sepharose column, % of total radioactivity bound; Study A; sodium thiosulfate 10 mg/mL; day 7
# [7] = biological target: ED-B fibronectin antigen protein (recombinant), bound to CNBr activated sepharose 4B (UniProt P02751); assay: ED-B sepharose column, % of total radioactivity bound; Study A; maltose 50 mg/mL; day 1
# [8] = biological target: ED-B fibronectin antigen protein (recombinant), bound to CNBr activated sepharose 4B (UniProt P02751); assay: ED-B sepharose column, % of total radioactivity bound; Study A; methionine 10 mg/mL; day 0
# [9] = biological target: ED-B fibronectin antigen protein (recombinant), bound to CNBr activated sepharose 4B (UniProt P02751); assay: ED-B sepharose column, % of total radioactivity bound; Study A; inositol 25 mg/mL; day 5
# [10] = biological target: ED-B fibronectin antigen protein (recombinant), bound to CNBr activated sepharose 4B (UniProt P02751); assay: ED-B sepharose column, % of total radioactivity bound; Study B3; human serum albumin 10 mg/mL; day 5
# [11] = biological target: ED-B fibronectin antigen protein (recombinant), bound to CNBr activated sepharose 4B (UniProt P02751); assay: ED-B sepharose column, % of total radioactivity bound; Study A; inositol 50 mg/mL; day 1
# [12] = biological target: ED-B fibronectin antigen protein (recombinant), bound to CNBr activated sepharose 4B (UniProt P02751); assay: ED-B sepharose column, % of total radioactivity bound; Study B3; human serum albumin 10 mg/mL; day 7
# [13] = biological target: ED-B fibronectin antigen protein (recombinant), bound to CNBr activated sepharose 4B (UniProt P02751); assay: ED-B sepharose column, % of total radioactivity bound; Study B3; thioglycerol 10 mg/mL; day 5
# [14] = biological target: ED-B fibronectin antigen protein (recombinant), bound to CNBr activated sepharose 4B (UniProt P02751); assay: ED-B sepharose column, % of total radioactivity bound; Study A; sodium thiosulfate 10 mg/mL; day 5
# [15] = biological target: ED-B fibronectin antigen protein (recombinant), bound to CNBr activated sepharose 4B (UniProt P02751); assay: ED-B sepharose column, % of total radioactivity bound; Study A; trolox 5 mg/mL; day 0
# [16] = biological target: ED-B fibronectin antigen protein (recombinant), bound to CNBr activated sepharose 4B (UniProt P02751); assay: ED-B sepharose column, % of total radioactivity bound; Study B3; inositol 10 mg/mL; day 7
# [17] = biological target: ED-B fibronectin antigen protein (recombinant), bound to CNBr activated sepharose 4B (UniProt P02751); assay: ED-B sepharose column, % of total radioactivity bound; Study A; sodium thiosulfate 5 mg/mL; day 5
# [18] = biological target: ED-B fibronectin antigen protein (recombinant), bound to CNBr activated sepharose 4B (UniProt P02751); assay: ED-B sepharose column, % of total radioactivity bound; Study B3; inositol 10 mg/mL; day 0
# [19] = biological target: ED-B fibronectin antigen protein (recombinant), bound to CNBr activated sepharose 4B (UniProt P02751); assay: ED-B sepharose column, % of total radioactivity bound; Study A; maltose 5 mg/mL; day 0
# [20] = biological target: ED-B fibronectin antigen protein (recombinant), bound to CNBr activated sepharose 4B (UniProt P02751); assay: ED-B sepharose column, % of total radioactivity bound; Study A; inositol 25 mg/mL; day 7
# [21] = biological target: ED-B fibronectin antigen protein (recombinant), bound to CNBr activated sepharose 4B (UniProt P02751); assay: ED-B sepharose column, % of total radioactivity bound; Study A; inositol 50 mg/mL; day 7
# [22] = biological target: ED-B fibronectin antigen protein (recombinant), bound to CNBr activated sepharose 4B (UniProt P02751); assay: ED-B sepharose column, % of total radioactivity bound; Study A; methionine 5 mg/mL; day 7
# [23] = biological target: ED-B fibronectin antigen protein (recombinant), bound to CNBr activated sepharose 4B (UniProt P02751); assay: ED-B sepharose column, % of total radioactivity bound; Study A; inositol 10 mg/mL; day 0
# [24] = biological target: ED-B fibronectin antigen protein (recombinant), bound to CNBr activated sepharose 4B (UniProt P02751); assay: ED-B sepharose column, % of total radioactivity bound; Study A; sodium thiosulfate 5 mg/mL; day 7
# [25] = biological target: ED-B fibronectin antigen protein (recombinant), bound to CNBr activated sepharose 4B (UniProt P02751); assay: ED-B sepharose column, % of total radioactivity bound; Study A; maltose 50 mg/mL; day 7
# [26] = biological target: ED-B fibronectin antigen protein (recombinant), bound to CNBr activated sepharose 4B (UniProt P02751); assay: ED-B sepharose column, % of total radioactivity bound; Study A; trolox 5 mg/mL; day 1
# [27] = biological target: ED-B fibronectin antigen protein (recombinant), bound to CNBr activated sepharose 4B (UniProt P02751); assay: ED-B sepharose column, % of total radioactivity bound; Study A; sodium thiosulfate 5 mg/mL; day 1
# [28] = biological target: ED-B fibronectin antigen protein (recombinant), bound to CNBr activated sepharose 4B (UniProt P02751); assay: ED-B sepharose column, % of total radioactivity bound; Study B3; ascorbic acid 25 mg/mL; day 5
# Sequence of 131I L19-SIP (radioiodinated L19 SIP homodimer) (chain): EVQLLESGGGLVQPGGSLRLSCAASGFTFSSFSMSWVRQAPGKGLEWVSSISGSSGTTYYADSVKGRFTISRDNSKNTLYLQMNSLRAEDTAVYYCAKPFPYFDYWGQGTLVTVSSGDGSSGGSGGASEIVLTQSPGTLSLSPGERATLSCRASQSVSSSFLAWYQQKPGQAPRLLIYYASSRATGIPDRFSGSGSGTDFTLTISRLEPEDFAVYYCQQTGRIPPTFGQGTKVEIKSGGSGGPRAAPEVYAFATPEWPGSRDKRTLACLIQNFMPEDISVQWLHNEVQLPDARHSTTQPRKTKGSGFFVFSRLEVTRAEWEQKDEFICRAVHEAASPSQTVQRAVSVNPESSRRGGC
# Sequence of 131I L19-SIP (radioiodinated L19 SIP homodimer) (chain): as above
# Sequence of UniProt P02751 (P02751 1266-1356 limits assumed): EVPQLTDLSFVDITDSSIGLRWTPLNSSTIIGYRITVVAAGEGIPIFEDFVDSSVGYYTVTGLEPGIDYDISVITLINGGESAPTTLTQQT
substance,measurement,setting,value
131I L19-SIP (radioiodinated L19 SIP homodimer),Immunoreactivity (IR) (%),[1],28.2%
same,Immunoreactivity (IR) (%),[2],59.9%
same,Immunoreactivity (%),[3],68.5%
same,Immunoreactivity (%),[4],64.2%
same,Immunoreactivity (%),[5],63.7%
same,Immunoreactivity (%),[6],78%
same,Immunoreactivity (%),[7],85.9%
same,Immunoreactivity (%),[8],96.6%
same,Immunoreactivity (%),[9],59.9%
same,Immunoreactivity (IR) (%),[10],53%
same,Immunoreactivity (%),[11],89.3%
same,Immunoreactivity (IR) (%),[12],39.8%
same,Immunoreactivity (IR) (%),[13],46.8%
same,Immunoreactivity (%),[14],81.3%
same,Immunoreactivity (%),[15],94.6%
same,Immunoreactivity (IR) (%),[16],61.9%
same,Immunoreactivity (%),[17],79.4%
same,Immunoreactivity (IR) (%),[18],59.5%
same,Immunoreactivity (%),[19],89.1%
same,Immunoreactivity (%),[20],62.8%
same,Immunoreactivity (%),[21],61.9%
same,Immunoreactivity (%),[22],61%
same,Immunoreactivity (%),[23],93.4%
same,Immunoreactivity (%),[24],70%
same,Immunoreactivity (%),[25],50.7%
same,Immunoreactivity (%),[26],84.8%
same,Immunoreactivity (%),[27],94.4%
same,Immunoreactivity (IR) (%),[28],64.7%
